From publication PMC4675670 come the findings set out here.

Substrate in the series: O=C(O)[C@@H]1CCCN1
Briefly: enzyme kinetics, Km. In kind it is biochemical, Homo sapiens.

B1: human EPRS (bifunctional glutamyl-prolyl-tRNA synthetase) (Homo sapiens) (protein)
chain: MATLSLTVNSGDPPLGALLAVEHVKDDVSISVEEGKENILHVSENVIFTDVNSILRYLARVATTAGLYGSNLMEHTEIDHWLEFSATKLSSCDSFTSTINELNHCLSLRTYLVGNSLSLADLCVWATLKGNAAWQEQLKQKKAPVHVKRWFGFLEAQQAFQSVGTKWDVSTTKARVAPEKKQDVGKFVELPGAEMGKVTVRFPPEASGYLHIGHAKAALLNQHYQVNFKGKLIMRFDDTNPEKEKEDFEKVILEDVAMLHIKPDQFTYTSDHFETIMKYAEKLIQEGKAYVDDTPAEQMKAEREQRIDSKHRKNPIEKNLQMWEEMKKGSQFGQSCCLRAKIDMSSNNGCMRDPTLYRCKIQPHPRTGNKYNVYPTYDFACPIVDSIEGVTHALRTTEYHDRDEQFYWIIEALGIRKPYIWEYSRLNLNNTVLSKRKLTWFVNEGLVDGWDDPRFPTVRGVLRRGMTVEGLKQFIAAQGSSRSVVNMEWDKIWAFNKKVIDPVAPRYVALLKKEVIPVNVPEAQEEMKEVAKHPKNPEVGLKPVWYSPKVFIEGADAETFSEGEMVTFINWGNLNITKIHKNADGKIISLDAKLNLENKDYKKTTKVTWLAETTHALPIPVICVTYEHLITKPVLGKDEDFKQYVNKNSKHEELMLGDPCLKDLKKGDIIQLQRRGFFICDQPYEPVSPYSCKEAPCVLIYIPDGHTKEMPTSGSKEKTKVEATKNETSAPFKERPTPSLNNNCTTSEDSLVLYNRVAVQGDVVRELKAKKAPKEDVDAAVKQLLSLKAEYKEKTGQEYKPGNPPAEIGQNISSNSSASILESKSLYDEVAAQGEVVRKLKAEKSPKAKINEAVECLLSLKAQYKEKTGKEYIPGQPPLSQSSDSSPTRNSEPAGLETPEAKVLFDKVASQGEVVRKLKTEKAPKDQVDIAVQELLQLKAQYKSLIGVEYKPVSATGAEDKDKKKKEKENKSEKQNKPQKQNDGQRKDPSKNQGGGLSSSGAGEGQGPKKQTRLGLEAKKEENLADWYSQVITKSEMIEYHDISGCYILRPWAYAIWEAIKDFFDAEIKKLGVENCYFPMFVSQSALEKEKTHVADFAPEVAWVTRSGKTELAEPIAIRPTSETVMYPAYAKWVQSHRDLPIKLNQWCNVVRWEFKHPQPFLRTREFLWQEGHSAFATMEEAAEEVLQILDLYAQVYEELLAIPVVKGRKTEKEKFAGGDYTTTIEAFISASGRAIQGGTSHHLGQNFSKMFEIVFEDPKIPGEKQFAYQNSWGLTTRTIGVMTMVHGDNMGLVLPPRVACVQVVIIPCGITNALSEEDKEALIAKCNDYRRRLLSVNIRVRADLRDNYSPGWKFNHWELKGVPIRLEVGPRDMKSCQFVAVRRDTGEKLTVAENEAETKLQAILEDIQVTLFTRASEDLKTHMVVANTMEDFQKILDSGKIVQIPFCGEIDCEDWIKKTTARDQDLEPGAPSMGAKSLCIPFKPLCELQPGAKCVCGKNPAKYYTLFGRSY
By Km is commonly meant the substrate concentration at which the rate is half of its maximum. For B1, the Km came to 135.4 µM.
